Reference: patent US20240002497A1 (Merck Sharp & Dohme, published 2024)
Substitutions are numbered along the chain they refer to. In names and notes the source's numbering stands. Values belong to the binder of their own block, whether it stands above or below them.

How the values were obtained:
[1] = biological target: T1, huNav1.7α+β1-β2-β3 (human, UniProt Q15858 1-1988; Q07699 19-218; O60939 30-215; Q9NY72 23-215); experiment: binding FACS, CHO FlpIn cells
T1 construct: 5N11S variant; also called huNav1.7-beta1-beta2-beta3; huNav1.7α+Navβ1-Navβ2-Navβ3
Procedure, shortened: (§1)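 Cells in FACS buffer (PBS, 10% FBS, NaN₃) were incubated with purified FLAG3-tagged ISVD for 30 minutes at 4° C. Bound ISVD was detected by flow cytometry with murine anti-Flag, and dead cells were excluded with 1 μg/mL propidium iodide.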

[2] = biological target: T2, huNav1.7α + β1-β2-β3 (human, UniProt Q15858 1-1988; A5A6L6 19-218; O60939 30-215; Q2KI11 23-215); experiment: binding FACS, CHO FlpIn
T2 construct: also called huNav1.7-beta1-beta2-beta3; huNav1.7-β1-β2-β3
Procedure, shortened: as §1

[3] = biological target: T3, rhNav1.7α + β1-β2-β3 (rhesus monkey); experiment: binding FACS, CHO FlpIn
T3 construct: also called rhNav1.7-beta1-beta2-beta3; rhNav1.7-β1-β2-β3
Procedure, shortened: as §1

[4] = biological target: T4, muNav1.7α (murine, UniProt Q62205 1-1984); experiment: binding FACS, HEK JmpIn
T4 construct: HEK JmpIn cells; also called murine Nav1.7α
Description: (§2) Binding of the ISVDs to cell-expressed Nav1.7α was detected via murine anti-Flag (Sigma, catalog #F1804). Briefly, cells were resuspended in FACS buffer (PBS, 10% FBS, NaN₃) and transferred to a 96-well V-bottom plate at 1×10^5 cells/well. Purified FLAG3-tagged ISVD was diluted in FACS buffer and added to the cells for 30 minutes at 4° C. […] Prior to the read-out, the samples were resuspended in 1 μg/mL propidium iodide (Sigma, catalog #P4170) to exclude dead cells. Between each step, the cells were centrifuged for 5 minutes at 200 grams and washed with 100 μL/well FACS buffer.

[5] = biological target: T5, huNav1.7α + β1 (HEKa/β1) (human, UniProt Q15858 1-1988; Q07699 19-218); experiment: binding FACS, HEKa/β1 cells
T5 construct: also called HEKa/β1 huNav1.7α
Description: as §2

[6] = biological target: T6, huNav1.7α + β1-β2-β3 (human, UniProt Q15858 1-1988; A5A6L6 19-218; O60939 30-215; Q2KI11 23-215); experiment: binding FACS, CHO FlpIn cells
T6 construct: Cell line (CHO FlpIn, HEK FlpIn, transient HEK293T) is named under assay; also called huNav1.7-beta1-beta2-beta3; human Nav1.7α with Navβ1, Navβ2 and Navβ3
Procedure, shortened: as §1

B1: F010301301 (VHH)
VHH: EVQLVESGGGLVQAGGSLRLSCDASGRILRTGYMRWHRQGAGKQREFVARITDDSATDYADSVKGRFTISRDNAKNTVYLQMNNLNPEDTAVYYCEALVTASVRGGSIHSGTYWGRGTLVTVSS
notes: vs 387G05: I31T
- EC50 [1]: 7.3 nM

B2: F010301304 (VHH)
VHH: B1 VHH with T31W
notes: vs 387G05: I31W
- EC50 [1]: 5.7 nM

B3: F010301309 (VHH)
VHH: B1 VHH with L29V, T31I
notes: vs 387G05: L29V
- EC50 [1]: 5.4 nM

B4: F010301328 (VHH)
VHH: B1 VHH with T31I, T57V
notes: vs 387G05: T57V
- EC50 [1]: 5 nM

B5: F010301425 (VHH)
VHH: B1 VHH with T31I, G105V
notes: vs 387G05: G100bV
- EC50 [1]: 15 nM

B6: F010301335 (VHH)
VHH: B1 VHH with T31I, R50V
notes: vs 387G05: R50V
- EC50 [1]: 7.9 nM

B7: F010301313 (VHH)
VHH: B1 VHH with T31I, R35K
notes: vs 387G05: R35K
- EC50 [1]: 5.5 nM

B8: F010301440 (VHH)
VHH: B1 VHH with T31I, G111T
notes: vs 387G05: G100hT
- EC50 [1]: 5.7 nM

B9: F010301409 (VHH)
VHH: B1 VHH with T31I, H109V
notes: vs 387G05: H100fV
- EC50 [1]: 5.1 nM

B10: F010301418 (VHH)
VHH: B1 VHH with T31I, Y113W
notes: vs 387G05: Y102W
- EC50 [1]: 4.9 nM

B12: F010301387 (VHH)
VHH: B1 VHH with T31I, V103A
notes: vs 387G05: V100A
- EC50 [1]: 5.2 nM

B13: F010301360 (VHH)
VHH: B1 VHH with T31I, A56T
notes: vs 387G05: A56T
- EC50 [1]: 5.2 nM

B14: F010301868 (VHH)
VHH: EVQLVESGGGVVQPGGSLRLSCATTSRAFIRDVFTGWYRRVPGKERELVARIYNGGNTNYADFAKGRFTISRDNAKKMVYLQMNSLRPEDTALYYCLFSGTINTGREYRSGDYWGQGTLVTVSS
notes: also called F0103464B09(L11V, S68T, T79Y, R81Q, S82aN, N82bS, K83R, G88A, V89L)
- Bmax [2]: 98%
- EC50 [2]: 6.3 nM
- EC50 [3]: 62 nM
- EC50 [4]: 11 nM

B19: F010301873 (VHH)
VHH: B14 VHH with R40Q
notes: also called F0103464B09(L11V, R39Q, S68T, T79Y, R81Q, S82aN, N82bS, K83R, G88A, V89L)
- Bmax [2]: 100%
- EC50 [2]: 9 nM
- EC50 [3]: 110 nM
- EC50 [4]: 42 nM

B23: F010301869 (VHH)
VHH: B14 VHH with M78T
notes: also called F0103464B09(L11V, S68T, M77T, T79Y, R81Q, S82aN, N82bS, K83R, G88A, V89L)
- Bmax [2]: 100%
- EC50 [2]: 7.6 nM
- EC50 [3]: 96 nM
- EC50 [4]: 17 nM

B25: F010301871 (VHH)
VHH: B14 VHH with T24A
notes: also called F0103464B09(L11V, T24A, S68T, T79Y, R81Q, S82aN, N82bS, K83R, AG88, V89L)
- Bmax [2]: 100%
- EC50 [2]: 5.8 nM
- EC50 [3]: 37 nM
- EC50 [4]: 24 nM

B32: F010301872 (VHH)
VHH: B14 VHH with T25S
notes: also called F0103464B09(L11V, T25S, S68T, T79Y, R81Q, S82aN, N82bS, K83R, G88A, V89L)
- Bmax [2]: 100%
- EC50 [2]: 6.8 nM
- EC50 [3]: 57 nM
- EC50 [4]: 21 nM

B33: F010301622 (VHH)
VHH: EVQLVESGGGLVQAGGSLRLSCAASVRPFSTSAMGWFRQAPEKEREAVAGILWNGIVTYYADSVKGRFTISRDNAKNEVYLQMNKLKPEDTAVYYCALDRDYGGRSFSADEYEYWGQGTLVTVSS
notes: Y100fD vs F0103362B08 (Kabat)
- EC50 [5]: 40 nM
- EC50 [6]: 170 nM

B34: F010301627 (VHH)
VHH: B33 VHH with G50A, D110Y
notes: G50A vs F0103362B08 (Kabat)
- EC50 [5]: 23 nM
- EC50 [6]: 76 nM

B35: F010301629 (VHH)
VHH: B33 VHH with G50S, D110Y
notes: G50S vs F0103362B08 (Kabat)
- EC50 [5]: 42 nM
- EC50 [6]: 120 nM

Next, values leading:

- binding result [1]: no binding
B11: F010301416 (VHH)
VHH: B1 VHH with T31I, T112Q
notes: vs 387G05: T101Q

- Bmax [2]: 100%
- EC50 [2]: 4.3 nM
- Bmax [3]: 100%
- EC50 [3]: 6.8 nM
- Bmax [4]: 61%
- EC50 [4]: 8.7 nM
B15: F010302339 (VHH)
VHH: B14 VHH with T24A, T25S, S26H, V41A, E45Q, N54E, N59Q, F63S, M78T, N103S

- Bmax [2]: 94%
- EC50 [2]: 4.4 nM
- EC50 [3]: 21 nM
- EC50 [4]: 5.3 nM
B16: F010301933 (VHH)
VHH: B14 VHH with Y80T, Q82R, N84S, S85N, A92G
notes: also called F0103464B09(L11V, S68T, K83R, V89L)

- Bmax [2]: 100%
- EC50 [2]: 5.8 nM
- EC50 [3]: 21 nM
- EC50 [4]: 3.6 nM
B17: F010301893 (VHH)
VHH: B14 VHH with E45Q
notes: also called F0103464B09(L11V, E44Q, S68T, T79Y, R81Q, S82aN, N82bS, K83R, G88A, V89L)

- Bmax [2]: 100%
- EC50 [2]: 6.4 nM
- EC50 [3]: 52 nM
- EC50 [4]: 14 nM
B18: F010301875 (VHH)
VHH: B14 VHH with F63S
notes: also called F0103464B09(L11V, F62S, S68T, T79Y, R81Q, S82aN, N82bS, K83R, G88A, V89L)

- Bmax [2]: 100%
- EC50 [2]: 13 nM
- EC50 [3]: 96 nM
- EC50 [4]: 39 nM
B20: F010301877 (VHH)
VHH: B14 VHH with K77N
notes: also called F0103464B09(L11V, S68T, K76N, T79Y, R81Q, S82aN, N82bS, K83R, G88A, V89L)

- Bmax [2]: 100%
- EC50 [2]: 6.3 nM
- EC50 [3]: 110 nM
- EC50 [4]: 23 nM
B21: F010301876 (VHH)
VHH: B14 VHH with A64V
notes: also called F0103464B09(L11V, A63V, S68T, T79Y, R81Q, S82aN, N82bS, K83R, G88A, V89L)

- Bmax [2]: 97%
- EC50 [2]: 4.8 nM
- EC50 [3]: 20 nM
- EC50 [4]: 4.7 nM
B22: F010301938 (VHH)
VHH: B14 VHH with T69S, Y80T, Q82R, N84S, A92G
notes: also called F0103464B09(L11V, N82bS, K83R, V89L)

- Bmax [2]: 96%
- EC50 [2]: 4.3 nM
- EC50 [3]: 21 nM
- EC50 [4]: 4.5 nM
B24: F010301934 (VHH)
VHH: B14 VHH with T69S, M78T, Y80T, Q82R, N84S, S85N, A92G
notes: also called F0103464B09(L11V, M77T, K83R, V89L)

- Bmax [2]: 96%
- EC50 [2]: 5.1 nM
- EC50 [3]: 22 nM
- EC50 [4]: 6.3 nM
B26: F010301939 (VHH)
VHH: B14 VHH with T69S, Y80T, Q82R, N84S, S85N
notes: also called F0103464B09(L11V, K83R, G88A, V89L)

- Bmax [2]: 94%
- EC50 [2]: 4.3 nM
- EC50 [3]: 17 nM
- EC50 [4]: 4.8 nM
B27: F010301932 (VHH)
VHH: B14 VHH with T69S, Y80T, Q82R, N84S, S85N, A92G
notes: also called F0103464B09(L11V, K83R, V89L)

- Bmax [2]: 95%
- EC50 [2]: 4.3 nM
- EC50 [3]: 20 nM
- EC50 [4]: 4.8 nM
B28: F010301937 (VHH)
VHH: B14 VHH with T69S, Y80T, Q82R, S85N, A92G
notes: also called F0103464B09(L11V, S82aN, K83R, V89L)

- Bmax [2]: 94%
- EC50 [2]: 3.8 nM
- EC50 [3]: 27 nM
- EC50 [4]: 5.5 nM
B29: F010301935 (VHH)
VHH: B14 VHH with T69S, Q82R, N84S, S85N, A92G
notes: also called F0103464B09(L11V, T79Y, K83R, V89L)

- Bmax [2]: 95%
- EC50 [2]: 4.4 nM
- EC50 [3]: 26 nM
- EC50 [4]: 4.8 nM
B30: F010301936 (VHH)
VHH: B14 VHH with T69S, Y80T, N84S, S85N, A92G
notes: also called F0103464B09(L11V, R81Q, K83R, V89L)

- Bmax [2]: 100%
- EC50 [2]: 6.5 nM
- EC50 [3]: 55 nM
- EC50 [4]: 18 nM
B31: F010301874 (VHH)
VHH: B14 VHH with V41A
notes: also called F0103464B09(L11V, V40A, S68T, T79Y, R81Q, S82aN, N82bS, K83R, G88A, V89L)

- Bmax [2]: 100%
- EC50 [2]: 3.9 nM
- Bmax [3]: 100%
- EC50 [3]: 6.8 nM
- Bmax [4]: 74%
B36: F010302337 (VHH)
VHH: EVQLVESGGGVVQPGGSLRLSCAASHRQFIRDVFTGWYRRAPGKQRELVARIYEGGNTQYADSAKGRFTISRDNAKKTVYLQMNSLRPEDTALYYCLFSGTISTGREYRSGDYWGQGTLVTVSS

- Bmax [2]: 100%
- EC50 [2]: 4.6 nM
- Bmax [3]: 100%
- EC50 [3]: 9.6 nM
- Bmax [4]: 48%
- EC50 [4]: 14 nM
B37: F010302347 (VHH)
VHH: B36 VHH with Q28A, R40Q
